Laboratory results taken from the FLAb antibody collection (doi:10.1101/2023.12.08.570889).

Target: ACVR2B, Q13705
Experiment: Kd (SPR)

ACVR2B, Q13705, sequence (Q13705 whole entry, looked up): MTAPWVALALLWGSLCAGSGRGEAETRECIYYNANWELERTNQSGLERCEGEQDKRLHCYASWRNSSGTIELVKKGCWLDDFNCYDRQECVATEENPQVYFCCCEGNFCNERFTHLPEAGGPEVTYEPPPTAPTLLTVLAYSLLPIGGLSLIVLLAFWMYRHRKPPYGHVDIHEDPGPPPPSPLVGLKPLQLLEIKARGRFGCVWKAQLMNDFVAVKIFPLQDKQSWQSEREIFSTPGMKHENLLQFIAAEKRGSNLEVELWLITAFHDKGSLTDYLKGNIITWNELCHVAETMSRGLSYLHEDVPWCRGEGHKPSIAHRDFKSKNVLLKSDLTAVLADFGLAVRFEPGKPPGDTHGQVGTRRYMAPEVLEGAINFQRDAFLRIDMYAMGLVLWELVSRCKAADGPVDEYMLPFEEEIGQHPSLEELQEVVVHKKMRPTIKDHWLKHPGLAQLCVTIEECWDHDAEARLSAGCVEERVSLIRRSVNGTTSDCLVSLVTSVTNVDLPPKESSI

B1: unnamed (protein)
chain 1: QVQLVQSGAEVKKPGASVKVSCKASGYTFTSSYINWVRQAPGQGLEWMGTINPVSGSTSYAQKFQGRVTMTRDTSISTAYMELSRLRSDDTAVYYCARSWGYFDVWGQGTLVTVSS
chain 2: QSALTQPASVSGSPGQSITISCTGTSSDVGSYNYVNWYQQHPGKAPKLMIYGVSKRPSGVSNRFSGSKSGNTASLTISGLQAEDEADYYCGTFAGGSYYGVFGGGTKLTVL
**Q.** Which Kd does the source give for B1 here?
**A.** Its Kd is 106 nM.

B2: unnamed (protein)
chain 1: QVQLVQSGAEVKKPGASVKVSCKASGYTFTSSYINWVRQAPGQGLEWMGTINPVSGSTSYAQKFQGRVTMTRDTSISTAYMELSRLRSDDTAVYYCARLAIGDSYWGQGTLVTVSS
chain 2: QSALTQPASVSGSPGQSITISCTGTSSDVGSYNYVNWYQQHPGKAPKLMIYGVSKRPSGVSNRFSGSKSGNTASLTISGLQAEDEADYYCGTFAGGSYYGVFGGGTKLTVL
**Q.** B2 was tested. Which Kd did it give?
**A.** The Kd was 111 nM.

B3: unnamed (protein)
chain 1: QVQLVQSGAEVKKPGASVKVSCKASGYTFTSSYINWVRQAPGQGLEWMGTINPVSGSTSYAQKFQGRVTMTRDTSISTAYMELSRLRSDDTAVYYCARQLTLDVWGQGTLVTVSS
chain 2: QSALTQPASVSGSPGQSITISCTGTSSDVGSYNYVNWYQQHPGKAPKLMIYGVSKRPSGVSNRFSGSKSGNTASLTISGLQAEDEADYYCGTFAGGSYYGVFGGGTKLTVL
**Q.** For B3, which Kd is on record?
**A.** The Kd was 210 nM.

B4: unnamed (protein)
chain 1: QVQLVQSGAEVKKPGASVKVSCKASGYTFTSSYINWVRQAPGQGLEWMGTINPVSGSTSYAQKFQGRVTMTRDTSISTAYMELSRLRSDDTAVYYCARGGYDDYWGQGTLVTVSS
chain 2: QSALTQPASVSGSPGQSITISCTGTSSDVGSYNYVNWYQQHPGKAPKLMIYGVSKRPSGVSNRFSGSKSGNTASLTISGLQAEDEADYYCGTFAGGSYYGVFGGGTKLTVL
**Q.** B4 was tested. Which Kd did it give?
**A.** The Kd was 42.6 nM.

B5: unnamed (protein)
chain 1: QVQLVQSGAEVKKPGASVKVSCKASGYTFTSSYINWVRQAPGQGLEWMGTINPVSGSTSYAQKFQGRVTMTRDTSISTAYMELSRLRSDDTAVYYCARGGYADYWGQGTLVTVSS
chain 2: QSALTQPASVSGSPGQSITISCTGTSSDVGSYNYVNWYQQHPGKAPKLMIYGVSKRPSGVSNRFSGSKSGNTASLTISGLQAEDEADYYCGTFAGGSYYGVFGGGTKLTVL
**Q.** Which Kd does the source give for B5 here?
**A.** Its Kd is 76.7 nM.

B6: unnamed (protein)
chain 1: QVQLVQSGAEVKKPGASVKVSCKASGYTFTSSYINWVRQAPGQGLEWMGTINPVSGSTSYAQKFQGRVTMTRDTSISTAYMELSRLRSDDTAVYYCARGGDFDYWGQGTLVTVSS
chain 2: QSALTQPASVSGSPGQSITISCTGTSSDVGSYNYVNWYQQHPGKAPKLMIYGVSKRPSGVSNRFSGSKSGNTASLTISGLQAEDEADYYCGTFAGGSYYGVFGGGTKLTVL
**Q.** With B6 as the binder, how does the Kd read?
**A.** The Kd was 123 nM.

B7: unnamed (protein)
chain 1: QVQLVQSGAEVKKPGASVKVSCKASGYTFTSSYINWVRQAPGQGLEWMGTINPVSGSTSYAQKFQGRVTMTRDTSISTAYMELSRLRSDDTAVYYCARSGYADYWGQGTLVTVSS
chain 2: QSALTQPASVSGSPGQSITISCTGTSSDVGSYNYVNWYQQHPGKAPKLMIYGVSKRPSGVSNRFSGSKSGNTASLTISGLQAEDEADYYCGTFAGGSYYGVFGGGTKLTVL
**Q.** With B7 as the binder, how does the Kd read?
**A.** The Kd was 41.9 nM.

B8: unnamed (protein)
chain 1: QVQLVQSGAEVKKPGASVKVSCKASGYTFTSSYINWVRQAPGQGLEWMGTINPVSGSTSYAQKFQGRVTMTRDTSISTAYMELSRLRSDDTAVYYCARGGYTDYWGQGTLVTVSS
chain 2: QSALTQPASVSGSPGQSITISCTGTSSDVGSYNYVNWYQQHPGKAPKLMIYGVSKRPSGVSNRFSGSKSGNTASLTISGLQAEDEADYYCGTFAGGSYYGVFGGGTKLTVL
**Q.** For B8, which Kd is on record?
**A.** The Kd was 101 nM.

B9: unnamed (protein)
chain 1: QVQLVQSGAEVKKPGASVKVSCKASGYTFTSSYINWVRQAPGQGLEWMGTINPVSGSTSYAQKFQGRVTMTRDTSISTAYMELSRLRSDDTAVYYCARGGYNDYWGQGTLVTVSS
chain 2: QSALTQPASVSGSPGQSITISCTGTSSDVGSYNYVNWYQQHPGKAPKLMIYGVSKRPSGVSNRFSGSKSGNTASLTISGLQAEDEADYYCGTFAGGSYYGVFGGGTKLTVL
**Q.** For B9, which Kd is on record?
**A.** The Kd was 101 nM.

B10: unnamed (protein)
chain 1: QVQLVQSGAEVKKPGASVKVSCKASGYTFTSSYINWVRQAPGQGLEWMGTINPVSGSTSYAQKFQGRVTMTRDTSISTAYMELSRLRSDDTAVYYCARGGDMDYWGQGTLVTVSS
chain 2: QSALTQPASVSGSPGQSITISCTGTSSDVGSYNYVNWYQQHPGKAPKLMIYGVSKRPSGVSNRFSGSKSGNTASLTISGLQAEDEADYYCGTFAGGSYYGVFGGGTKLTVL
**Q.** For B10, which Kd is on record?
**A.** The Kd was 162 nM.

B11: unnamed (protein)
chain 1: QVQLVQSGAEVKKPGASVKVSCKASGYTFTSSYINWVRQAPGQGLEWMGTINPVSGSTSYAQKFQGRVTMTRDTSISTAYMELSRLRSDDTAVYYCARNGYADYWGQGTLVTVSS
chain 2: QSALTQPASVSGSPGQSITISCTGTSSDVGSYNYVNWYQQHPGKAPKLMIYGVSKRPSGVSNRFSGSKSGNTASLTISGLQAEDEADYYCGTFAGGSYYGVFGGGTKLTVL
**Q.** For B11, which Kd is on record?
**A.** Its Kd is 337 nM.

B12: unnamed (protein)
chain 1: QVQLVQSGAEVKKPGASVKVSCKASGYTFTSSYINWVRQAPGQGLEWMGTINPVSGSTSYAQKFQGRVTMTRDTSISTAYMELSRLRSDDTAVYYCARGGYVDYWGQGTLVTVSS
chain 2: QSALTQPASVSGSPGQSITISCTGTSSDVGSYNYVNWYQQHPGKAPKLMIYGVSKRPSGVSNRFSGSKSGNTASLTISGLQAEDEADYYCGTFAGGSYYGVFGGGTKLTVL
**Q.** With B12 as the binder, how does the Kd read?
**A.** The Kd was 153 nM.

B13: unnamed (protein)
chain 1: QVQLVQSGAEVKKPGASVKVSCKASGYTFTSSYINWVRQAPGQGLEWMGTINPVSGSTSYAQKFQGRVTMTRDTSISTAYMELSRLRSDDTAVYYCARGGEFDYWGQGTLVTVSS
chain 2: QSALTQPASVSGSPGQSITISCTGTSSDVGSYNYVNWYQQHPGKAPKLMIYGVSKRPSGVSNRFSGSKSGNTASLTISGLQAEDEADYYCGTFAGGSYYGVFGGGTKLTVL
**Q.** How did the Kd turn out when B13 was run?
**A.** Its Kd is 704 nM.

B14: unnamed (protein)
chain 1: QVQLVQSGAEVKKPGASVKVSCKASGYTFTSSYINWVRQAPGQGLEWMGTINPVSGSTSYAQKFQGRVTMTRDTSISTAYMELSRLRSDDTAVYYCARGGYFDVWGQGTLVTVSS
chain 2: QSALTQPASVSGSPGQSITISCTGTSSDVGSYNYVNWYQQHPGKAPKLMIYGVSKRPSGVSNRFSGSKSGNTASLTISGLQAEDEADYYCGTFAGGSYYGVFGGGTKLTVL
**Q.** With B14 as the binder, how does the Kd read?
**A.** Its Kd is 26.2 nM.

B15: unnamed (protein)
chain 1: QVQLVQSGAEVKKPGASVKVSCKASGYTFTSSYINWVRQAPGQGLEWMGTINPVSGSTSYAQKFQGRVTMTRDTSISTAYMELSRLRSDDTAVYYCARSGYFDYWGQGTLVTVSS
chain 2: QSALTQPASVSGSPGQSITISCTGTSSDVGSYNYVNWYQQHPGKAPKLMIYGVSKRPSGVSNRFSGSKSGNTASLTISGLQAEDEADYYCGTFAGGSYYGVFGGGTKLTVL
**Q.** With B15 as the binder, how does the Kd read?
**A.** The Kd was 9.19 nM.

B16: unnamed (protein)
chain 1: QVQLVQSGAEVKKPGASVKVSCKASGYTFTSSYINWVRQAPGQGLEWMGTINPVSGSTSYAQKFQGRVTMTRDTSISTAYMELSRLRSDDTAVYYCARSGYMDYWGQGTLVTVSS
chain 2: QSALTQPASVSGSPGQSITISCTGTSSDVGSYNYVNWYQQHPGKAPKLMIYGVSKRPSGVSNRFSGSKSGNTASLTISGLQAEDEADYYCGTFAGGSYYGVFGGGTKLTVL
**Q.** Which Kd does the source give for B16 here?
**A.** The Kd was 6.37 nM.

B17: unnamed (protein)
chain 1: QVQLVQSGAEVKKPGASVKVSCKASGYRFTSSGINWVRQAPGQGLEWMGTINPVTGNTSYAQKFQGRVTMTRDTSISTAYMELSRLRSDDTAVYYCARGGYFDYWGQGTLVTVSS
chain 2: QSALTQPASVSGSPGQSITISCTGTSSDVGSYNYVNWYQQHPGKAPKLMIYGVSKRPSGVSNRFSGSKSGNTASLTISGLQAEDEADYYCGTFAGGSYYGVFGGGTKLTVL
**Q.** With B17 as the binder, how does the Kd read?
**A.** Its Kd is 292 nM.

B18: unnamed (protein)
chain 1: QVQLVQSGAEVKKPGASVKVSCKASGYTFTSTGINWVRQAPGQGLEWMGTINPVTGGTSYAQKFQGRVTMTRDTSISTAYMELSRLRSDDTAVYYCARGGYFDYWGQGTLVTVSS
chain 2: QSALTQPASVSGSPGQSITISCTGTSSDVGSYNYVNWYQQHPGKAPKLMIYGVSKRPSGVSNRFSGSKSGNTASLTISGLQAEDEADYYCGTFAGGSYYGVFGGGTKLTVL
**Q.** Which Kd does the source give for B18 here?
**A.** Its Kd is 234 nM.

B19: unnamed (protein)
chain 1: QVQLVQSGAEVKKPGASVKVSCKASGYTFTSSHINWVRQAPGQGLEWMGTINPVTGNTSYAQKFQGRVTMTRDTSISTAYMELSRLRSDDTAVYYCARGGYFDYWGQGTLVTVSS
chain 2: QSALTQPASVSGSPGQSITISCTGTSSDVGSYNYVNWYQQHPGKAPKLMIYGVSKRPSGVSNRFSGSKSGNTASLTISGLQAEDEADYYCGTFAGGSYYGVFGGGTKLTVL
**Q.** Which Kd does the source give for B19 here?
**A.** Its Kd is 162 nM.
